Reference: PMC9329571, “Regulation of TIA-1 Condensates: Zn2+ and RGG Motifs Promote Nucleic Acid Driven LLPS and Inhibit Irreversible Aggregation”

Assays:
[1] = molecular target: FUS-RBD (RGG1-RRM-RGG2-ZnF-RGG3) (UniProt P35637 242-526); assay: fluorescence anisotropy; 12 mM arginine; FA: 10 mM HEPES pH 7.2, 50 mM NaCl, 12 mM arginine (further 1 mM component truncated in the text); temperature not stated; KD from two independent measurements.; conditions: protein: recombinant; tags: N-terminal GB1-6xHis; label: 5'-fluorescein; single strand
Sequence of FUS-RBD (RGG1-RRM-RGG2-ZnF-RGG3) (P35637 242-526): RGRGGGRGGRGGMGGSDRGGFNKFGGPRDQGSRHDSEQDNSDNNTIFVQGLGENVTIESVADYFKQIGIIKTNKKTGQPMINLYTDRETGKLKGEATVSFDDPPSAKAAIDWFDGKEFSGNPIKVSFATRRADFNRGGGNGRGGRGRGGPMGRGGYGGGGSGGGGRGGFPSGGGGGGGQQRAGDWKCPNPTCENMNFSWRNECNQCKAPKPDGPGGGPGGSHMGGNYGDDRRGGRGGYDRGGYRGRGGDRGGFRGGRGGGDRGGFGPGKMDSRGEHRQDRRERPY

TIA-1 RRM2,3 = molecular target: T1, TIA-1 RRM2,3 (UniProt P31483-2 93-274); assay: as above; conditions: protein: recombinant; tags: 6xHis removed with thrombin; label: 5'-fluorescein; single strand
T1 sequence: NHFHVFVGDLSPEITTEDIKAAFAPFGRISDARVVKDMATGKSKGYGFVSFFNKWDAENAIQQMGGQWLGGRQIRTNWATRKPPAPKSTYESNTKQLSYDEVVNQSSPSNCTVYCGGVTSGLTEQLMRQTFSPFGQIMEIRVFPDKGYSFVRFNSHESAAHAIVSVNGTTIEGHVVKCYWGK

B1: TC1 (ssDNA)
DNA: TTTTTACTCC
- Kd [1]: 30 nM
- Kd (TIA-1 RRM2,3): 2 nM
